# Experimental data from patent publication US20260098095A1 (Hoffmann-La Roche, published 2026).
# Columns and labels:
# Experiment in all cases: cell-based or functional assay
# [1] = molecular target: T1, HLA-A2/MAGE-A4 peptide MHC (pMHC) complex on cells (human)
# [2] = molecular target: KEAP1 (human)
# [3] = molecular target: BNRF1 (human)
# [4] = molecular target: HLA-A2 with peptide MAGB6 on T2 cells (human)
# [5] = molecular target: DYNC1H1 (human)
# [6] = molecular target: URB1 (human)
# [7] = molecular target: KDM1A (human)
# [8] = molecular target: PKP1 (human)
# [9] = molecular target: UNC80 (human)
# [10] = molecular target: VPS13D (human)
# [11] = molecular target: MTOR (human)
# [12] = molecular target: HLA-A2 with peptide MAGA10 on T2 cells (human)
# [13] = molecular target: DPYSL4 (human)
# [14] = molecular target: CCS (human)
# [15] = molecular target: ARF1 (human)
# [16] = molecular target: GAPDHS (human)
# [17] = molecular target: DPYSL3 (human)
# [18] = molecular target: EDC3 (human)
# [19] = molecular target: UBE2V2 (human)
# [20] = molecular target: FBXO34 (human)
# [21] = molecular target: ARF3 (human)
# [22] = molecular target: CRMP1 (human)
# [23] = molecular target: gutQ (human)
# [24] = molecular target: pfkA (human)
# [25] = molecular target: PIGG (human)
# [26] = molecular target: SLC45A1 (human)
# [27] = molecular target: MAGEB2 (human)
# [28] = molecular target: T9A (human)
# [29] = molecular target: E7A (human)
# [30] = molecular target: H8A (human)
# [31] = molecular target: V10A (human)
# [32] = molecular target: R6A (human)
# [33] = molecular target: G5A (human)
# [34] = molecular target: T1, HLA-A2/MAGE-A4 peptide MHC (pMHC) …; remark: listed apart in the source
# [35] = molecular target: Y3A (human)
# [36] = molecular target: G1A (human)
# [37] = molecular target: V2A (human)
# [38] = molecular target: D4A (human)
# [39] = molecular target: T1, HLA-A2/MAGE-A4 peptide MHC (pMHC) …; remark: listed apart in the source
# [40] = molecular target: T1, HLA-A2/MAGE-A4 peptide MHC (pMHC) …; remark: listed apart in the source
binder,measurement,setting,value
"Molecule E (bispecific antibody, V domains shown) VH 1: not shown VL 1: SSELTQDPAVSVALGQTVRITCQGDSLRSYYASWYQQKPGQAPVLVIYGKNNRPSGIPDRFSGSSSGNTASLTITGAQAEDEADYYCNSRQSSYYHHIVFGGGTKLTVL VH 2: not shown VL 2: QAVVTQEPSLTVSPGGTVTLTCGSSTGAVTTSNYANWVQEKPGQAFRGLIGGTNKRAPGTPARFSGSLLGGKAALTLSGAQPEDEAEYYCALWYSNLWVFGGGTKLTVL","EC50 [pM] 24 h, T-cell mediated lysis of MAGE-A4 peptide pulsed T2 cells",[1],32.7 pM
same,"% of MAGE-A4 signal, Jurkat-NFAT",[2],0.34%
same,"% of MAGE-A4 signal, Jurkat-NFAT",[3],0.45%
same,"% of MAGE-A4 signal, Jurkat-NFAT; grey (>2%)",[4],110%
same,"% of MAGE-A4 signal, Jurkat-NFAT",[5],0.17%
same,"% of MAGE-A4 signal, Jurkat-NFAT",[6],1.2%
same,"% of MAGE-A4 signal, Jurkat-NFAT",[7],0.34%
same,"% of MAGE-A4 signal, Jurkat-NFAT",[8],0.43%
same,"% of MAGE-A4 signal, Jurkat-NFAT",[9],0.49%
same,"% of MAGE-A4 signal, Jurkat-NFAT; grey (>2%)",[10],47%
same,"% of MAGE-A4 signal, Jurkat-NFAT",[11],0.29%
same,"% of MAGE-A4 signal, Jurkat-NFAT; grey (>2%)",[12],43.2%
same,"% of MAGE-A4 signal, Jurkat-NFAT",[13],0.48%
same,"% of MAGE-A4 signal, Jurkat-NFAT; grey (>2%)",[14],38.6%
same,"% of MAGE-A4 signal, Jurkat-NFAT",[15],0.93%
same,"% of MAGE-A4 signal, Jurkat-NFAT",[16],0.39%
same,"% of MAGE-A4 signal, Jurkat-NFAT",[17],1.04%
same,"% of MAGE-A4 signal, Jurkat-NFAT",[18],0.54%
same,"% of MAGE-A4 signal, Jurkat-NFAT",[19],0.4%
same,"% of MAGE-A4 signal, Jurkat-NFAT; grey (>2%)",[20],4.03%
same,"% of MAGE-A4 signal, Jurkat-NFAT",[21],0.85%
same,"% of MAGE-A4 signal, Jurkat-NFAT",[22],0.37%
same,"% of MAGE-A4 signal, Jurkat-NFAT",[23],0.31%
same,"% of MAGE-A4 signal, Jurkat-NFAT",[24],0.26%
same,"% of MAGE-A4 signal, Jurkat-NFAT",[25],0.26%
same,"% of MAGE-A4 signal, Jurkat-NFAT",[26],0.38%
same,"% of MAGE-A4 signal, Jurkat-NFAT; grey (>2%)",[27],108%
same,"EC50, Jurkat-NFAT activation",[28],4.26 nM
same,"EC50, Jurkat-NFAT activation",[29],2.98 nM
same,"EC50, Jurkat-NFAT activation",[30],1.23 nM
same,"EC50, Jurkat-NFAT activation",[31],7.46 nM
same,"EC50, Jurkat-NFAT activation",[32],2.37 nM
same,"EC50, Jurkat-NFAT activation",[33],9.44 nM
same,"EC50, Jurkat-NFAT activation",[34],1.62 nM
same,"EC50, Jurkat-NFAT activation",[35],2.06 nM
same,"EC50, Jurkat-NFAT activation",[36],2.72 nM
same,"EC50, Jurkat-NFAT activation",[37],4.07 nM
same,"EC50, Jurkat-NFAT activation",[38],22.3 nM
same,"EC50 [pM], activation of Jurkat-NFAT reporter cells (luminescence, 6 h) with MAGE-A4 peptide pulsed T2 cells",[39],877 pM
same,"EC50 [pM], T-cell mediated lysis of C-33A cells, 24 h",[40],3980 pM
same,"EC50 [pM], T-cell mediated lysis of IM-9 cells, 24 h",[40],393 pM
same,"EC50 [pM], T-cell mediated lysis of NCI-H1755 cells, 24 h",[40],84.4 pM
same,"EC50 [pM], T-cell mediated lysis of UMUC-3 cells, 24 h",[40],~5800 pM
"Molecule F (bispecific antibody, V domains shown) VH 1: not shown VL 1: SSELTQDPAVSVALGQTVRITCQGDSLRSYYASWYQQKPGQAPVLVIYGKNNRPSGIPDRFSGSSSSNTASLTITGAQAEDEADYYCNSRMSSRYHHDVFGGGTKLTVL VH 2: not shown VL 2: QAVVTQEPSLTVSPGGTVTLTCGSSTGAVTTSNYANWVQEKPGQAFRGLIGGTNKRAPGTPARFSGSLLGGKAALTLSGAQPEDEAEYYCALWYSNLWVFGGGTKLTVL","EC50 [pM] 24 h, T-cell mediated lysis of MAGE-A4 peptide pulsed T2 cells",[1],1.5 pM
same,"% of MAGE-A4 signal, Jurkat-NFAT",[2],0.66%
same,"% of MAGE-A4 signal, Jurkat-NFAT",[3],0.55%
same,"% of MAGE-A4 signal, Jurkat-NFAT; grey (>2%)",[4],130%
same,"% of MAGE-A4 signal, Jurkat-NFAT",[5],0.64%
same,"% of MAGE-A4 signal, Jurkat-NFAT; grey (>2%)",[6],78.4%
same,"% of MAGE-A4 signal, Jurkat-NFAT",[7],0.9%
same,"% of MAGE-A4 signal, Jurkat-NFAT",[8],0.64%
same,"% of MAGE-A4 signal, Jurkat-NFAT",[9],1.05%
same,"% of MAGE-A4 signal, Jurkat-NFAT; grey (>2%)",[10],172%
same,"% of MAGE-A4 signal, Jurkat-NFAT",[11],0.42%
same,"% of MAGE-A4 signal, Jurkat-NFAT; grey (>2%)",[12],145%
same,"% of MAGE-A4 signal, Jurkat-NFAT; grey (>2%)",[13],14.2%
same,"% of MAGE-A4 signal, Jurkat-NFAT; grey (>2%)",[14],76.8%
same,"% of MAGE-A4 signal, Jurkat-NFAT",[15],1.58%
same,"% of MAGE-A4 signal, Jurkat-NFAT",[16],1.01%
same,"% of MAGE-A4 signal, Jurkat-NFAT; grey (>2%)",[17],61.9%
same,"% of MAGE-A4 signal, Jurkat-NFAT",[18],0.89%
same,"% of MAGE-A4 signal, Jurkat-NFAT",[19],0.71%
same,"% of MAGE-A4 signal, Jurkat-NFAT",[20],0.78%
same,"% of MAGE-A4 signal, Jurkat-NFAT",[21],1.53%
same,"% of MAGE-A4 signal, Jurkat-NFAT; grey (>2%)",[22],6.54%
same,"% of MAGE-A4 signal, Jurkat-NFAT",[23],0.73%
same,"% of MAGE-A4 signal, Jurkat-NFAT",[24],0.8%
same,"% of MAGE-A4 signal, Jurkat-NFAT",[25],0.78%
same,"% of MAGE-A4 signal, Jurkat-NFAT",[26],0.68%
same,"% of MAGE-A4 signal, Jurkat-NFAT; grey (>2%)",[27],126%
same,"EC50, Jurkat-NFAT activation",[28],0.45 nM
same,"EC50, Jurkat-NFAT activation",[29],0.332 nM
same,"EC50, Jurkat-NFAT activation",[30],0.0813 nM
same,"EC50, Jurkat-NFAT activation",[31],0.791 nM
same,"EC50, Jurkat-NFAT activation",[32],0.196 nM
same,"EC50, Jurkat-NFAT activation",[33],1.09 nM
same,"EC50, Jurkat-NFAT activation",[34],0.0954 nM
same,"EC50, Jurkat-NFAT activation",[35],15 nM
same,"EC50, Jurkat-NFAT activation",[36],0.259 nM
same,"EC50, Jurkat-NFAT activation",[37],6.57 nM
same,"EC50, Jurkat-NFAT activation",[38],9.95 nM
same,"EC50 [pM], activation of Jurkat-NFAT reporter cells (luminescence, 6 h) with MAGE-A4 peptide pulsed T2 cells",[39],41.6 pM
same,"EC50 [pM], T-cell mediated lysis of A-375 cells, 24 h",[40],822 pM
same,"EC50 [pM], T-cell mediated lysis of C-33A cells, 24 h",[40],186 pM
same,"EC50 [pM], T-cell mediated lysis of IM-9 cells, 24 h",[40],8.3 pM
same,"EC50 [pM], T-cell mediated lysis of NCI-H1755 cells, 24 h",[40],2.7 pM
same,"EC50 [pM], T-cell mediated lysis of NCI-H2023 cells, 24 h",[40],890 pM
same,"EC50 [pM], T-cell mediated lysis of U266B1 cells, 24 h",[40],352 pM
same,"EC50 [pM], T-cell mediated lysis of UMUC-3 cells, 24 h",[40],429 pM
